Source: the supplement of paper PMC9170038

What was measured:
MS2 coat protein [1] = assay: apparent KD of MS2 coat protein, switch OFF state (with FMN for OFF switches, without FMN for ON switches); designed switch direction (-1 OFF switch, 1 ON switch): 1; higher = weaker reporter binding; settings: FMN input: 0 or 200 uM; Eterna round: R93 (includes R88 designs)
In short: (§1)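 For every design, apparent KD is the median of normalised binding-curve fits from its clusters. The RNA switches were transcribed on-chip from Illumina sequencing clusters and titrated with SNAP-549-labelled MS2 coat protein (twofold steps, 0.7 or 1.5 nM to 3 µM; 0.8–1.5 h to 10–20 min per step). Titrations used 100 mM Tris-HCl pH 7.5, 80 mM KCl, 4 mM MgCl2, without or with constant ligand.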

MS2 coat protein [2] = assay: apparent KD of MS2 coat protein, switch ON state; designed switch direction (-1 OFF switch, 1 ON switch): 1; higher = weaker reporter binding; settings: FMN input: 0 or 200 uM; Eterna round: R93 (includes R88 designs)
In short: as §1

| Sequence | apparent KD of MS2 coat protein (MS2 coat protein [1]) | apparent KD of MS2 coat protein (MS2 coat protein [2]) |
| --- | --- | --- |
| AAAAGACAUGAGGAUCACCCAUGUAAAAACUUGAGAGGAUAUGCUUGAAAAACAUGCUAUGCAGAAGGCUCUAGUC [SS1 - 16] | 28.2 nM | 21.3 nM |
| GAAAAACAUGAGGAUCACCCAUGUGAGAAUAUGGGAGGAUAUACAAAGACGAAAGUCAAAGUAGAAGGCCUAAAAG [Mat - Same State 1 - Eli mod - D6] | 94.5 nM | 27.6 nM |
| GAAAAACAUGAGGAUCACCCAUGUAGAAAUAUGGAAGGAUAUACGAAGACGAAAGUCAAAGUAGAAGGUCUAAAAG [Garnet 96] | 19.5 nM | 17 nM |
| AGAAUAAAAAGACAGGAUAUCCAAAAGAAAACAUGAGGAUCACCCAUGUAAAGAAAAGAAAAAUGGGAGAAGGGUCAAAAUAAGA [Mat - Same State 2 - JL mod - D59] | 56.3 nM | 20.4 nM |
| ACGGCACAUGAGGAUCACCCAUGUGCCGAGAGGCGAGGAUAUCGAAAAAAAAAAAAAAAACGAGAAGGCGCGAGAA [SameState1NO] | 11.1 nM | 12.6 nM |
| GGGAGGAAGAGAGAGGAUAUCCAAAGGAAAACAUGAGGAUCACCCAUGUAAAAGGUAGGAAAUUGGGAGAAGGCUCAAAAGAGGA [salish99-ss2-039] | 30.3 nM | 31.3 nM |
| AAGAAACAUGAGGAUCACCCAUGUGAGAACAUGGGAGGAUAUACGAAGACGAAAGUCGAAGUAGAAGGCCUAAAAG [Garnet 80] | 24.9 nM | 243 nM |
| AAAUAAAUGACUGAGGAUAUAUCGAUGGGUACAUGAGGAUCACCCAUGUGUUAAUAAAAAGGGUGGUAGAAGGUAGUCAACAAAC [Mod 16 of Pariah 4 by Hyphema in Round 1] | 748 nM | 238 nM |
| AAAUAACAUGAGGAUCACCCAUGUUACAACUUUACAGGAUAUGUGGGUGAAAAUAGCAUGACAGAAGGGUACAGUA [SameState1 Malc#35] | 158 nM | 171 nM |
| GCUGGGCUACACUAGGAUAUGGGUGUCUAAACAUGAGGAUCACCCAUGUGAUGGCAAAACAAAGCUCAGAAGGAGUCGUAGCCCA [Inrionarus] | 22.3 nM | 14.7 nM |
| AUGAUACAUGAGGAUCACCCAUGUCACCUCACACGAGGAUAUCUGUGCAGUACUCAGUACGGAGAAGGCGUGGAAA [Same State 1.2d (Same State of Confusion2 - KL)] | 78.1 nM | 20.2 nM |
| AAAUAGUGCACUAAGGAUAUGUCGCAUGACACAUGAGGAUCACCCAUGUGGUAACACAGAGGGUGGCAGAAGGUAGUGUGCAAAC [Mod 2 of Pariah 6 (Round1) by Hyphema] | 446 nM | 35.7 nM |
| GGAUAUAUACAGGAGGAUAUGAGAACAAAGACAUGAGGAUCACCCAUGUACAAAAGGUGGAACAAUCAGAAGGUCUAAACAACAAA [Thing 1 and Thing 2] | 49.7 nM | 61 nM |
| CGGAGACAUGAGGAUCACCCAUGUGAGAAGAGGCGAGGAUAUCGAAAGAAAGAAGAGAAACGAGAAGGCGCGAGGC [salish99-SS1-079] | 41.2 nM | 21.1 nM |
| CGCGAACAUGAGGAUCACCCAUGUGAAAAACAUAGAGGAUAUGUCGCAUGCGUGUAAAAGACAGAAGGCUAUCGCG [Normal (21/22)] | 72.5 nM | 22.8 nM |
| AAGAAACAUGAGGAUCACCCAUGUAAGAUAAACACAGGAUAUGCAAAAGAAACAAAGAAAGCAGAAGGGUGAAGAA [Mat - Same State 1 - Tesla mod - 49] | 48.4 nM | 17.8 nM |
| AAGAAACAUGAGGAUCACCCAUGUAAGAUAAACACAGGAUAUGCGAAAAUAAACAAAGAAGCAGAAGGGUGAAGAA [Mat - Same State 1 - Tesla mod - 62] | 41.9 nM | 13.5 nM |
| AAAAAAAAUGUGUAGGAUAUCAGUAAAAAUACAUGAGGAUCACCCAUGUUCAAAAAAAAAAAAACUGAGAAGGACACGGGAAGUCC [Design 2] | 18.5 nM | 20.5 nM |
| UUUCAUUACACGAAGGAUAUCGCUUUUCCGACAUGAGGAUCACCCAUGUAGUAGACCUCCCUGUUCGAGAAGGUCGCGGGUGAAC [JR_SS002_Sub604] | 32.4 nM | 192 nM |
| UACAGGAAGAGAGAGGAUAUCCAAAGGAAAACAUGAGGAUCACCCAUGUAAAAGGUAGGAAAUUGGGAGAAGGCUCAAGAGAGAG [salish99-ss2-090] | 32 nM | 21 nM |
| GAAAAACAUGAGGAUCACCCAUGUGAUAAUAUGGGAGGAUAUACAAAGACGAAAGUCAAAGUAGAAGGCCUAAAAG [Garnet 35] | 73.2 nM | 40.5 nM |
| AAUAAGACUAGCAAGGAUAUCGAAAACGAGACAUGAGGAUCACCCAUGUAACGAGUAUAAGUAUACGAGAAGGUGCAGGGUGAAA [JR_SS002_Sub303] | 86.7 nM | 75 nM |
| GAAAAACAUGAGGAUCACCCAUGUGAGAAUAUGGGAGGAUAUACGAAGACGAGAGUCGAAGUAGAAGGCCUAAAAG [Mat - Same State 1 - Eli mod - 31] | 119 nM | 28.2 nM |
| AGAAAUAAAAGAGAGGAUAUCCAAAACAAAACAUGAGGAUCACCCAUGUGAAAGAAAAUAAAAUGGGAGAAGGCUCAAAAUAAAG [Topaz 8] | 70.4 nM | 8.35 nM |
| AACAUACAUGAGGAUCACCCAUGUUCCGGCAGGUCAGGAUAUAUAUCGAAAGAGUUAUAAAUAGAAGGGACAUAAA [JR_SS001_Sub009] | 60.7 nM | 49.6 nM |
| AAACCACAUGAGGAUCACCCAUGUAAAAUUAUGGGAGGAUAUACUAGAAGAAACAAAAUAGUAGAAGGCCUAAAAA [75%, Ex sub1, 33] | 74.2 nM | 15.9 nM |
| AAACCACAUGAGGAUCACCCAUGUGUAAAAAAUACAGGAUAUGGAAACACGAAAGUGAAACCAGAAGGGUGGAAAA [77%, Mat - Mod of Eli, 29] | 28.3 nM | 31.6 nM |
| GAAAAACAUGAGGAUCACCCAUGUGGAAAUAUGGGAGGAUAUACUAUGACGAAAGUCAAAGUAGAAGGCCUGAUAG [JL S1 M-MoE mod 5 In the Read] | 124 nM | 24.7 nM |
| UAAAAACAUGAGGAUCACCCAUGUGAGAACAUGGGAGGAUAUACGAAGACGAAAGUCAAAGUAGAAGGCCUAAAAU [Mat - Same State 1 - Mod - D171] | 15.6 nM | 302 nM |
